Assay results from patent US20250277199, “NOVEL CRISPR-CAS NUCLEASES FROM METAGENOMES” (Brain Biotech AG, published 2025).

Target: T1, BMC01 (uncultured bacterium (metagenome))
T1 chain: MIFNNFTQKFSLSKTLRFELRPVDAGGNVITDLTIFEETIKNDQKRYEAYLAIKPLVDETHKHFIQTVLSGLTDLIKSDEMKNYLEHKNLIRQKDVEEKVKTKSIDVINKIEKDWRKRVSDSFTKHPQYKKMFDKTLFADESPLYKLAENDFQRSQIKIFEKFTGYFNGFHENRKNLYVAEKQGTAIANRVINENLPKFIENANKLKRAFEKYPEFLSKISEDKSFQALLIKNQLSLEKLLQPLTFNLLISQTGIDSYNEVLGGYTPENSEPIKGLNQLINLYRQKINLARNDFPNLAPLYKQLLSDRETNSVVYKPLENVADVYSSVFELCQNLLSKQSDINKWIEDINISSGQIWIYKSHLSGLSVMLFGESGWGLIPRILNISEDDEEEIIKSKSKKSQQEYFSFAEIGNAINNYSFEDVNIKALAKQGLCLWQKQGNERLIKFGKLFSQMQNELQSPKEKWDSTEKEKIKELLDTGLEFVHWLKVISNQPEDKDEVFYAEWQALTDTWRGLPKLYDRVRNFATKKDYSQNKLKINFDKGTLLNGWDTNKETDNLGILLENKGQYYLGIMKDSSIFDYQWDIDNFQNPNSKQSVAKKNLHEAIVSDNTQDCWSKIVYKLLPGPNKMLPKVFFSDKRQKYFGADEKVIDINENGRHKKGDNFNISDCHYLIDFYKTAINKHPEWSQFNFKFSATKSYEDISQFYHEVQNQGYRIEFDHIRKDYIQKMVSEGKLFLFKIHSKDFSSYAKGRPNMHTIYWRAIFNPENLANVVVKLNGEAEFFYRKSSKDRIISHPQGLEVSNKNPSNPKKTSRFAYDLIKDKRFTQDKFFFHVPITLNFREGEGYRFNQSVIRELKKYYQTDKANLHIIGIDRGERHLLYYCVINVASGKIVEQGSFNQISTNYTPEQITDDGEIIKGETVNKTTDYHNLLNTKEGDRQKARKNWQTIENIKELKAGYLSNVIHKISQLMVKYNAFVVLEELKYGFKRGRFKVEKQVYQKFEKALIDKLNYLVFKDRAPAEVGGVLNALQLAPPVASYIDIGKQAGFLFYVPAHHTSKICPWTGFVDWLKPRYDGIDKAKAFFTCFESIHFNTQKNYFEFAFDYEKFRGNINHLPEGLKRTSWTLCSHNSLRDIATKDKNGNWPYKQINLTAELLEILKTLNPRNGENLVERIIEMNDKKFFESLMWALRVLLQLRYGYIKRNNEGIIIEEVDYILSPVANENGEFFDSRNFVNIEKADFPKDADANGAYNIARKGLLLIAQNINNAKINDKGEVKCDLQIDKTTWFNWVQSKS
Assay: cell_activity; PAM not stated; E. coli depletion, 30 C
Method in brief: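 E. coli carrying arabinose-induced (0.2%) BMC nuclease, grown at 30° C., made electrocompetent and electroporated with 50-100 ng plasmid carrying gRNA against malQ. Transformants plated on selective M9-glucose agar with kanamycin/ampicillin (± nourseothricin), and growth scored after 48 h at 30° C.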

B1: malQ gRNA (BMC stem-loop + 24 nt spacer) ; malQ protospacer (ssRNA ; dsDNA)
RNA: GAUUUCUACUAUUGUAGAUGUGGCGGUACGUUGAUGCAUCGCG
DNA 1: GTGGCGGTACGTTGATGCATCGCG
DNA 2: CGCGATGCATCAACGTACCGCCAC
activity: > 99.9 % colony reduction
